Measurements reported in US11702469B2, “Recombinant EGFL7, EGFL7 antibodies, and uses thereof” (Ohio State Innovation Foundation, priority 2017, dated 2023).

How the values were obtained:
[1] = test system: CD34+CB cells; experiment: CFU assay, CD34+ cord blood cells; assay type: cell-based; conditions: treated in vitro, vs IgG1 control
Method: FIG. 12. Recombinant EGFL7 stimulation leads to expansion of primary CFUs and secondary CFUs in human hematopoietic stem and progenitor cells (HSPCs). […] The number of colonies with more than 50 cells was counted under a light microscope. Right: Cells from the first round of CFU assays were harvested, rinsed with SFEM, and pooled. 5000 cells were then mixed with methylcellulose medium in the absence or presence of 0.25 μM recombinant human EGFL7 and plated onto 2 cm dishes for 10 days. The number of colonies with more than 50 cells was counted under a light microscope. […]
[…] After 10 days of culture, colonies were scored.
To assess the toxicity of Parsatuzumab on normal hematopoiesis, wild type (C57Bl/6J) mice were treated with Parsatuzumab (n=4) and IgG1 control (n=4) with the highest dose previously tested at 50 mpk twice a week for two weeks. Parsatuzumab targets both human and mouse EGFL7 protein. After two weeks of treatment, blood, spleen and BM were harvested and full phenotypic characterization was performed to assess toxicity. […] Full immunophenotypic examination of BM populations was also performed (data not shown due to space constraints). […] To functionally test the effect of Parsatuzumab on normal HSPCs, competitive repopulation BM transplantation (BMT) assays and CFU assays were performed. […]

[2] = test system: human AML blasts; experiment: CFU assay, blasts of AML patients; assay type: cell-based
Method: FIG. 4A-4E. EGFL7 stimulates the proliferation of human and mouse acute myeloid leukemia (AML cells). Bone marrow cells from wild-type (WT) mice (FIG. 4A), and Mll^PTD/WTFlt3^ITD/WT mice (FIG. 4B), were treated without (Unstim) or with 0.1, 0.25, or 0.5 μM recombinant mouse Egfl7 (rEgfl7) in IMDM medium+2% bovine serum albumin (BSA) for 24, 48, 72 and 96 hours. At the indicated time points, the number of viable cells was determined by trypan blue dye exclusion assay. Each condition was repeated in triplicate. NS indicates not significant, * indicates P<0.05, ** indicates P<0.01. (FIG. 4C). […] The colonies with more than 50 cells were enumerated using a light microscope. Each condition for each patient (n=4) was plated in triplicate, ** indicates P<0.01, *** indicates P<0.001. (FIG. 4D) Blasts from AML patients (n=4) were cultured in SFEM+2% BSA in the absence or presence of 0.25 μM rEGFL7 for 20 min. Total proteins were extracted for immunoblotting of phosphorylated AKT-S473 (pAKT-S473), total AKT and GAPDH. (FIG. 4E) AML blasts from Mll^PTD/WTFlt3^ITD/WT mice (n=3) were cultured in IMDM medium+2% BSA in the absence or presence of […] recombinant rEgfl7 for 20 min. […]
FIG. 5. […] The number of colonies with more than 50 cells was counted under a light microscope. […]
Colonies with more than 50 cells were counted using a light microscope. […]

B1: Parsatuzumab: Anti-human EGFL7 therapeutic antibody (Parsatuzumab) obtained from Creative Biolabs; blocking monoclonal antibody (antibody, chains of the INN, looked up, V domains shown)
VH: EVQLVESGGGLVQPGGSLRLSCAASGYTFIDYYMNWVRQAPGKGLEWVGDINLDNSGTHYNQKFKGRFTISRDKSKNTAYLQMNSLRAEDTAVYYCAREGVYHDYDDYAMDYWGQGTLVTVSS
VL: DIQMTQSPSSLSASVGDRVTITCRTSQSLVHINAITYLHWYQQKPGKAPKLLIYRVSNRFSGVPSRFSGSGSGTDFTLTISSLQPEDFATYYCGQSTHVPLTFGQGTKVEIK
numbers and types of colonies, CB CD34+ cells [1]: no significant changes in the numbers or types of colonies
cell growth (numbers of formed colonies in CFU assays) ([2]; 2, 10, 50, or 250 μg/ml for 2 h, then 10 days, vs normal IgG): significant decreases in cell growth
blast growth (number of CFUs) ([2]; increasing concentrations for 4 hours, then 10 days in methylcellulose, n=4, vs IGg1 control): dose dependent decrease in blast growth
